{"source": "paper PMC2387164", "about": "“A GATA4/WT1 cooperation regulates transcription of genes required for mammalian sex determination and differentiation”", "molecules": {"B1": {"name": "pig SRY GATA site 2 (dsDNA)", "DNA 1": "GATCCATTGGGTTATCTTGAATCA", "DNA 2": "GATCTGATTCATGATAACCCAATG"}, "B2": {"name": "pig SRY GATA site 1 (dsDNA)", "DNA 1": "GATCCGCCTTATTATCATAATAAA", "DNA 2": "GATCTTTATTATGATAATAAGGCG"}, "B3": {"name": "pig SRY GATA site 4 (dsDNA)", "DNA 1": "GATCCCCAAGGTTATCTGTTTTTA", "DNA 2": "GATCTAAAAACAGATAACCTTGGG"}, "B4": {"name": "pig SRY GATA site 3 (dsDNA)", "DNA 1": "GATCCACATACTGATAATCATCAA", "DNA 2": "GATCTTGATGATTATCAGTATGTG"}, "B5": {"name": "human AMH distal WT1 element (dsDNA)", "DNA 1": "GGATCACTGGGGAGGGAGATAGGA", "DNA 2": "GATCTCCTATCTCCCTCCCCAGTG"}}, "key": {"[1]": {"biological_target": "WT1(+KTS) overexpressed in HeLa cells (mouse) (UniProt P22561)", "sequence (P22561 whole entry)": "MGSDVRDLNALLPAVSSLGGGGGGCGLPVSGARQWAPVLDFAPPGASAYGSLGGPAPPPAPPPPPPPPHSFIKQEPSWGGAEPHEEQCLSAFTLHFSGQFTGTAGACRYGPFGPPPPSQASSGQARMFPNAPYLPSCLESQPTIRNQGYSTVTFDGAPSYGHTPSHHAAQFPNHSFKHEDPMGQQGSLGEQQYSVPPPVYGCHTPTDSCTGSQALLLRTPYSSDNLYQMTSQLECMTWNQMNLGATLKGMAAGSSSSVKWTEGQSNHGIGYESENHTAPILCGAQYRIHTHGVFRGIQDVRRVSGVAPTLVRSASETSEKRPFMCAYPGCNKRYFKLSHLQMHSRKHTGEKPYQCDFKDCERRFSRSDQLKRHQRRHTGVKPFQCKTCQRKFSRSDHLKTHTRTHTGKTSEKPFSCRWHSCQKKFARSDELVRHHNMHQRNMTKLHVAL"}, "GATA4 [2]": {"biological_target": "T1, GATA4 (UniProt Q08369 1-441)", "T1 sequence (Q08369 whole entry)": "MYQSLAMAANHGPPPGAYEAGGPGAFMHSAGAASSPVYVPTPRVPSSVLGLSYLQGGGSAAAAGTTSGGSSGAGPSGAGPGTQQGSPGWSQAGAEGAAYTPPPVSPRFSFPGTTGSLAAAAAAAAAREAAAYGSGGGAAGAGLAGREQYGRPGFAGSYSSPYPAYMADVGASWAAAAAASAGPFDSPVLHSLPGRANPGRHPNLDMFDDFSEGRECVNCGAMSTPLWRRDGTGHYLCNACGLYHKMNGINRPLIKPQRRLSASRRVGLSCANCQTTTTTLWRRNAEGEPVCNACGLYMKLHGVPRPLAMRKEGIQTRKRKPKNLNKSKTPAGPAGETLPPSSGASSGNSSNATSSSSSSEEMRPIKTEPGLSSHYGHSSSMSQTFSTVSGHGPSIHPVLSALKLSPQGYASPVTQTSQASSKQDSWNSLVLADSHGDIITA", "assay": "competition; competitor of labeled GATA site 1; EMSA conditions as described previously (ref. 48); buffer, salt, pH and temperature not given", "settings": "protein: ivt; 5' overhang 4 nt (GATC) both ends"}, "GATA4 [3]": {"biological_target": "T1, GATA4", "assay": "EMSA; EMSA conditions as described previously (ref. 48); buffer, salt, pH and temperature not given", "settings": "protein: ivt; label: 32P (as probe); 5' overhang 4 nt (GATC) both ends"}, "WT1(+KTS)": {"biological_target": "WT1(+KTS) (mouse, UniProt P22561 1-449)", "sequence (P22561 whole entry)": "as the sequence (P22561 whole entry) above", "assay": "EMSA; blocked by 10-fold excess self competitor; EMSA conditions as described previously (ref. 48); buffer, salt, pH and temperature not given", "settings": "protein: ivt; label: 32P (as probe); 5' overhang 4 nt (GGAT on strand 1, GATC on strand 2)"}, "WT1(-KTS)": {"biological_target": "WT1(-KTS) (mouse, UniProt P22561-4 1-446)", "sequence (P22561 other isoform, or with tags, fused parts or gaps)": "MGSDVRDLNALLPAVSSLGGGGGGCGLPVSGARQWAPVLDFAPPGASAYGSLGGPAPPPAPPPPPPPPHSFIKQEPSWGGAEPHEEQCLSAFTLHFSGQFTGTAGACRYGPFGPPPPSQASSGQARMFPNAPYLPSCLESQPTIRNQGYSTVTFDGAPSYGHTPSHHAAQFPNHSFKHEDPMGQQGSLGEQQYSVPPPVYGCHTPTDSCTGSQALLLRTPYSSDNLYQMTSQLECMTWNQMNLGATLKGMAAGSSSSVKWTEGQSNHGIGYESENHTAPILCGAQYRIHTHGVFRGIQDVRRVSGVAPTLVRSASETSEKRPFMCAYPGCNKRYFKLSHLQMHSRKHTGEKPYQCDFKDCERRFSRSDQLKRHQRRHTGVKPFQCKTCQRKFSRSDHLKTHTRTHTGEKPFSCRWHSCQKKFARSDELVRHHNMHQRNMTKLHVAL", "assay": "EMSA; blocked by 10-fold excess self competitor; EMSA conditions as described previously (ref. 48); buffer, salt, pH and temperature not given", "settings": "protein: ivt; label: 32P (as probe); 5' overhang 4 nt (GGAT on strand 1, GATC on strand 2)"}}, "data": [{"molecule": "GATA4 overexpressed in HeLa cells (from UniProt P46152 1-440) (natural protein)", "values": [{"measurement": "luciferase reporter, -1090 bp mouse Sry promoter, co-transfected HeLa cells, fold activation over control", "setting": "[1]", "value": 30, "unit": "fold"}, {"measurement": "luciferase reporter, -1400 bp pig SRY promoter, co-transfected HeLa cells, fold activation over control", "setting": "[1]", "value": 50, "unit": "fold"}]}, {"molecule": "B1", "values": [{"measurement": "binding result", "setting": "GATA4 [2]", "value": "binds"}]}, {"molecule": "B2", "values": [{"measurement": "binding result", "setting": "GATA4 [3]", "value": "binds"}]}, {"molecule": "B3", "values": [{"measurement": "binding result", "setting": "GATA4 [2]", "value": "binds"}]}, {"molecule": "B4", "values": [{"measurement": "binding result", "setting": "GATA4 [2]", "value": "binds"}]}, {"molecule": "B5", "values": [{"measurement": "binding result", "setting": "WT1(+KTS)", "value": "binds"}, {"measurement": "binding result", "setting": "WT1(-KTS)", "value": "binds"}]}]}
